Experimental data from the supplement of paper PMC11316812.
± gives the standard deviation of the averaged measurements.

Key:
hTERT-HMEC = experiment: percentage of EdU-negative (G0-arrested) nuclei per well, 72 h; higher = more G0 arrest; conditions: reference: sequence is the full UniProt precursor, the tested protein was the secreted form or ectodomain
MCF7 = experiment: as above; conditions: reference: sequence is the full UniProt precursor, the tested protein was the secreted form or ectodomain
[1] = protein concentration 0.03125 µM
[2] = protein concentration 0.3125 µM
[3] = protein concentration 0.00625 µM
[4] = protein concentration 0.0625 µM
[5] = protein concentration 0.00575 µM
[6] = protein concentration 0.0575 µM
[7] = protein concentration 0.0225 µM
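Also: secreted proteins added to cultured cells, EdU pulse at the end, nuclei found by Hoechst imaging, EdU status from nuclear versus surrounding ring intensity ratio, PBS as neutral control.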

Sequence	percentage of EdU-negative (hTERT-HMEC; [7]) [%]	percentage of EdU-negative (hTERT-HMEC; protein concentration 0.225 µM) [%]	percentage of EdU-negative (MCF7; [7]) [%]	percentage of EdU-negative (MCF7; protein concentration 0.225 µM) [%]	also measured
MKVVPSLLLSVLLAQVWLVPGLAPSPQSPETPAPQNQTSRVVQAPKEEEEDEQEASEEKASEEEKAWLMASRQQLAKETSNFGFSLLRKISMRHDGNMVFSPFGMSLAMTGLMLGATGPTETQIKRGLHLQALKPTKPGLLPSLFKGLRETLSRNLELGLTQGSFAFIHKDFDVKETFFNLSKRYFDTECVPMNFRNASQAKRLMNHYINKETRGKIPKLFDEINPETKLILVDYILFKGKWLTPFDPVFTEVDTFHLDKYKTIKVPMMYGAGKFASTFDKNFRCHVLKLPYQGNATMLVVLMEKMGDHLALEDYLTTDLVETWLRNMKTRNMEVFFPKFKLDQKYEMHELLRQMGIRRIFSPFADLSELSATGRNLQVSRVLQRTVIEVDERGTEAVAGILSEITAYSMPPVIKVDRPFHFMIYEETSGMLLFLGRVVNPTLL [Q9UK55]					percentage of EdU-negative (hTERT-HMEC; [1]): 4.46 ± 0.39%; percentage of EdU-negative (hTERT-HMEC; [2]): 11.5 ± 0.79%; percentage of EdU-negative (MCF7; [1]): 24.6 ± 0.79%; percentage of EdU-negative (MCF7; [2]): 29.5 ± 0.31%
MKVWLLLGLLLVHEALEDVTGQHLPKNKRPKEPGENRIKPTNKKVKPKIPKMKDRDSANSAPKTQSIMMQVLDKGRFQKPAATLSLLAGQTVELRCKGSRIGWSYPAYLDTFKDSRLSVKQNERYGQLTLVNSTSADTGEFSCWVQLCSGYICRKDEAKTGSTYIFFTEKGELFVPSPSYFDVVYLNPDRQAVVPCRVTVLSAKVTLHREFPAKEIPANGTDIVYDMKRGFVYLQPHSEHQGVVYCRAEAGGRSQISVKYQLLYVAVPSGPPSTTILASSNKVKSGDDISVLCTVLGEPDVEVEFTWIFPGQKDERPVTIQDTWRLIHRGLGHTTRISQSVITVEDFETIDAGYYICTAQNLQGQTTVATTVEFS					percentage of EdU-negative (hTERT-HMEC; [3]): 4.49 ± 0.2%; percentage of EdU-negative (hTERT-HMEC; [4]): 5.36 ± 0.45%; percentage of EdU-negative (MCF7; [3]): 27.9 ± 0.57%; percentage of EdU-negative (MCF7; [4]): 29.4 ± 1%
MKWLLLLGLVALSECIMYKVPLIRKKSLRRTLSERGLLKDFLKKHNLNPARKYFPQWEAPTLVDEQPLENYLDMEYFGTIGIGTPAQDFTVVFDTGSSNLWVPSVYCSSLACTNHNRFNPEDSSTYQSTSETVSITYGTGSMTGILGYDTVQVGGISDTNQIFGLSETEPGSFLYYAPFDGILGLAYPSISSSGATPVFDNIWNQGLVSQDLFSVYLSADDQSGSVVIFGGIDSSYYTGSLNWVPVTVEGYWQITVDSITMNGEAIACAEGCQAIVDTGTSLLTGPTSPIANIQSDIGASENSDGDMVVSCSAISSLPDIVFTINGVQYPVPPSAYILQSEGSCISGFQGMNLPTESGELWILGDVFIRQYFTVFDRANNQVGLAPVA [P0DJD7]					percentage of EdU-negative (hTERT-HMEC; [5]): 4.41 ± 0.41%; percentage of EdU-negative (hTERT-HMEC; [6]): 5.85 ± 0.73%; percentage of EdU-negative (MCF7; [5]): 25.5 ± 2.2%; percentage of EdU-negative (MCF7; [6]): 24.6 ± 1.6%
MKWMVVVLVCLQLLEAAVVKVPLKKFKSIRETMKEKGLLGEFLRTHKYDPAWKYRFGDLSVTYEPMAYMDAAYFGEISIGTPPQNFLVLFDTGSSNLWVPSVYCQSQACTSHSRFNPSESSTYSTNGQTFSLQYGSGSLTGFFGYDTLTVQSIQVPNQEFGLSENEPGTNFVYAQFDGIMGLAYPALSVDEATTAMQGMVQEGALTSPVFSVYLSNQQGSSGGAVVFGGVDSSLYTGQIYWAPVTQELYWQIGIEEFLIGGQASGWCSEGCQAIVDTGTSLLTVPQQYMSALLQATGAQEDEYGQFLVNCNSIQNLPSLTFIINGVEFPLPPSSYILSNNGYCTVGVEPTYLSSQNGQPLWILGDVFLRSYYSVYDLGNNRVGFATAA	4.89 ± 0.11	6.1 ± 0.73	24.38 ± 0.12	23.4 ± 0.35	
MKYLRHRRPNATLILAIGAFTLLLFSLLVSPPTCKVQEQPPAIPEALAWPTPPTRPAPAPCHANTSMVTHPDFATQPQHVQNFLLYRHCRHFPLLQDVPPSKCAQPVFLLLVIKSSPSNYVRRELLRRTWGRERKVRGLQLRLLFLVGTASNPHEARKVNRLLELEAQTHGDILQWDFHDSFFNLTLKQVLFLQWQETRCANASFVLNGDDDVFAHTDNMVFYLQDHDPGRHLFVGQLIQNVGPIRAFWSKYYVPEVVTQNERYPPYCGGGGFLLSRFTAAALRRAAHVLDIFPIDDVFLGMCLELEGLKPASHSGIRTSGVRAPSQRLSSFDPCFYRDLLLVHRFLPYEMLLMWDALNQPNLTCGNQTQIY [Q9Y2A9]	4.326 ± 0.034	7.879 ± 0.065	25.7 ± 2	30.2 ± 0.85	
MKYTSYILAFQLCIVLGSLGCYCQDPYVKEAENLKKYFNAGHSDVADNGTLFLGILKNWKEESDRKIMQSQIVSFYFKLFKNFKDDQSIQKSVETIKEDMNVKFFNSNKKKRDDFEKLTNYSVTDLNVQRKAIHELIQVMAELSPAAKTGKRKRSQMLFRGRRASQ					percentage of EdU-negative (hTERT-HMEC; [1]): 92.2 ± 1.5%; percentage of EdU-negative (hTERT-HMEC; [2]): 96.92 ± 0.62%; percentage of EdU-negative (MCF7; [1]): 39.5 ± 2.2%; percentage of EdU-negative (MCF7; [2]): 42.7 ± 1.8%
MLALLAASVALAVAAGAQDSPAPGSRFVCTALPPEAVHAGCPLPAMPMQGGAQSPEEELRAAVLQLRETVVQQKETLGAQREAIRELTGKLARCEGLAGGKARGAGATGKDTMGDLPRDPGHVVEQLSRSLQTLKDRLESLEHQLRANVSNAGLPGDFREVLQQRLGELERQLLRKVAELEDEKSLLHNETSAHRQKTESTLNALLQRVTELERGNSAFKSPDAFKVSLPLRTNYLYGKIKKTLPELYAFTICLWLRSSASPGIGTPFSYAVPGQANEIVLIEWGNNPIELLINDKVAQLPLFVSDGKWHHICVTWTTRDGMWEAFQDGEKLGTGENLAPWHPIKPGGVLILGQEQDTVGGRFDATQAFVGELSQFNIWDRVLRAQEIVNIANCSTNMPGNIIPWVDNNVDVFGGASKWPVETCEERLLDL	5.346 ± 0.033	6.28 ± 1.3	24.1 ± 0.47	24.8 ± 0.78	
MLALLCSCLLLAAGASDAWTGEDSAEPNSDSAEWIRDMYAKVTEIWQEVMQRRDDDGALHAACQVQPSATLDAAQPRVTGVVLFRQLAPRAKLDAFFALEGFPTEPNSSSRAIHVHQFGDLSQGCESTGPHYNPLAVPHPQHPGDFGNFAVRDGSLWRYRAGLAASLAGPHSIVGRAVVVHAGEDDLGRGGNQASVENGNAGRRLACCVVGVCGPGLWERQAREHSERKKRRRESECKAA	7 ± 3.4	4.98 ± 0.59	23.8 ± 1	27 ± 0.74	
